Here are results for 41 sequences from the nanobody polyreactivity screen of Harvey et al. (2022).

This data set can be described thus: yeast display, Sf9 membrane polyspecificity reagent, FACS + sequencing; frameworks hold sequencing errors. Summed up: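 Galactose induction of a Saccharomyces cerevisiae BJ5465 synthetic nanobody display library ran 36–48 hours. The cells were then stained for 1 hour at 4 °C with 10% biotinylated, detergent-solubilized Sf9 membrane reagent, pulled down on streptavidin microbeads and FACS-sorted into low and high (top ~1%) gates on expression and reagent-binding fluorescence. Labels for polyreactivity follow the gate of origin.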
Turning to “QVQLVESGGGLVQAGGSLRLSCAASGGIFPYYAMGWYRQAPGKERELVADISSGGSTYYADSVKGRFTISRDNAKNTVYFQMNSLKPEDTAVYYCAADAGQYFTYSGDDNHDYWGQGTQVTVSS”, the “polyreactivity (PSR sort gate)” value is “low polyreactivity”.
To “QVQLVDSGGGLVQAGGSLRLSCAASGRTFRYYAMGWYRQAPGKERELVATITGSGGSTYYADSVKGRFTISRDNAKNTVYLQLISLKPEDTAVYYCNARKVRYPYRWYDYWGQGTQVTVSS” belongs “high polyreactivity”; to “QVQLVESGGGLVQAGGSLRLSCAASGRIFPSYAMGWYRQAPGKERELVAAISYSGASTYYADSVKGRFTISRDYAKNTVSLQMNSLKPEDTAVYYCNQLVEEDYWGQGTQVTVSS”, “low polyreactivity”; to “QDQLVESGGGLVQAGGSLRLSCAASGSTFVKYAMGWYRQAPGKERELVAAITKGGGSTYYADSVKGRFTISRDNAKNTVYLQMNSLKPEDTAVYYCNTSPHYRYGMDYWGQGTQVTVSS”, “high polyreactivity”.
To “QVQLEESGGGLVQAGGSLRLSCAASGRIFGAYAMGWYRQAPGKERELVAAITSRGGNTYYADSVKGRFTISRDNAKNTVYLQMNSLKPEDTAVYYCAARHDKRRQYYVGESAFDYWGQGTQVTVSS” belongs “low polyreactivity”; to “QVQLVESGGGLVQAGGSLRLSCAASGRIFRRYAMGWYRQAPGKERELVSAITSGSSTYYADSVKGRFTISRDNPKNTVNLQMISVKPEYSAVYYCAALGYTYKYYSYYWGHGTQVTVSS”, “high polyreactivity”.
To “QVQLVESGGGLVQARGSLRLSCAASGSTFEHNAMGWYRQGPGKERELVAAISYSGGRTYYADSVKGRFTISRDNAKNTVYLQMNSLKTEDTAVYYCAAPYYSWPYYYWGLGTQVTVSS” belongs “high polyreactivity”; to “QVQLVESGGGLVQAGGSLRLSCAASGSIFSANVMGWYRQAPGKERELVAAITRGGGTYYADSVKGRFTISRDNAKNTVYLQMNSLKPEDTAVYYCNDDYTLSVYGTTYWYNYWGQGTQVTVSS”, “high polyreactivity”.
With “QVQLVESGGGLVQAGGTLRLSCAASGFTFNYYAMGWYRQAPGKERELFAAISSRGTGTYYADSVKGRFTISRDNAKNTVYFQMNSLKPEDTAVYYCAADWFTWSWQETRYGYWGQGTQVTVSS”, the “polyreactivity (PSR sort gate)” value was “high polyreactivity”.
The value for “QVQLVESGGGLVQAGGSLRLSCAASGITIVNYVMGWYRQAPGKERELVAAISLGGGTYYADSVKGRFTISRDNAKNTVYLQMNSLKADDTAVYYGNASYGGLAFYIGVYVTGYDYWRQGTQVTVSS” was “low polyreactivity”; that for “QVQLVESGGGLVQAGGSLRLSFAASGRIFSDNAMGWYRQAPGKERELVATINYSGGSTYYADSVKGRFTISRDNAKNTFYLQMNSLKPEDTAVYYCATRIPHRIIYYDYDYWGQGTQVTVSS” was “low polyreactivity”.
To “QVQLVESGGGLVQAGGSLRLSCAASGSTYSWYAMGWYRQAPGKERELVASISWRGGSTYYADSVKGRFTISRDNAKNTVYLQMNSLKPEDTAVYYCAADYYWKLFHEPPAVYDYDYWGQCTQVTVSS” belongs “low polyreactivity”; to “QVQLVESGGGLVQAGGSLRLSCAASGSIFVPYAMGWYRPAPGKERELVAAISWSGGSTYYADSVKGRFTISRDNAKNTVYLHMNSLKPEDTAVYYCAVRFRSYTSYYWIDYEYWGQGTQVTVSS”, “high polyreactivity”.
The value for “QVQLVESGGGLVQAGGSLRLSCAASGITFSRNVMGWYRQAPGKERELVAAISRSGGTTTYADSVKGRFTISRDNAKNTVYLQMNSLKPEDTAVYYCNVYDYPTYDYWGQGTQVSVSS” was “low polyreactivity”; that for “QVQLVESGGGLVQAGGSLRLSCAASGFILLDYAMRWYRQAPGKERELVAAISWSGARTYYADSVKGRFTISRDNAKNTVYLQMNSLKPEDTAVYYCATRYRWTPYDYWGQGTQVTVSS” was “low polyreactivity”; that for “QVQLVESGGGLVQARGSLRLSCAASGLTFYYYVMGWYRQAPGKERELVAAISYSGGRTYYADSVKGRFTISRDNAKNTVYLQMNSLKPEDTAVYYCAAQSRYGGKFYYWGQGTQVTVSS” was “high polyreactivity”.
On to “QDQLVESGGGLVQAGGSLRLSCAASGRTFNPYAMGSYRQAPGKERELVAAIRWRGTRTYYADSVKGRFTISRDNAKNTVYLQMNSLKPEDTAVYYCAADDPHSREMDYWGQGTQVTVSS”, for which the “polyreactivity (PSR sort gate)” value was “high polyreactivity”.
To “QVQLVESGGGLVQAGGSLRLSCAASGRIFPWYAMGWYRQAPGKERELVAAISWSGGRTYYADSVKGRFTISRDNAKNTVYLQMNSLKPEDTAVYYCAAERVTYTISYSYSYDYWGQGTQVTVSS” belongs “high polyreactivity”; to “QVQLVESGGGLVQAGGSLRLSCAASGLTFRDNAMGWYRQAPGKERELVAAISTNGGSTYYADSVKGRFTISRDNAKNTVYLQMNSLKPEDTAVYYCAKSFLTQYPQVDSDYWGQGTQVTVSS”, “low polyreactivity”.
With “QVQLEESGGGLVQAGGSLRLSCAPSGSIFFYYAMGWYRQAPGKERELVAAITFTGGSTYYADSVKGRFTISRDNANNTVYLQMNSLNPEDTAVSYCAADWYYGDEYEYWGQGTQVTVSS”, the “polyreactivity (PSR sort gate)” value is on record as “high polyreactivity”.
To “QVQLVESGGGLVQAGGSLRLSCAASGRIFVSNAMGWYRQAPGKERELVACITWTSGSTYYADSVKGRFTISRDNAKNTVYLQMNSLKPEDTAVYYCAAEYWYGNAFDYWGQGTQVTVSS” belongs “low polyreactivity”.
The value for “QVQLVESGGGLVQAGGSLRLSCAASGRTFYANAMGWYRQAPGKERELVASITTSGGTYYADSVKGRFTISRDNAKNTVYLQMNSLKPEDTAVYYCAADVYRSIGYDYWGQGTQVTVSS” was “low polyreactivity”; that for “QDQLVESGGGLVQAGGSLRLSCAASGRTFGPYAMGWYRQAPGKEREFVAAITWRGGRTNYADSVKGRFTISRDNAKNTVYLQMNSLKPEDTAVYYCNAVISPHQWIRGGDSWGQGTQVTVSS” was “low polyreactivity”.
To “QVQLVESGGGLVQAGGSLRLSCAASGIIFRAYAMGWYRPAPGKETEFVADISYSGGRTYYADSVKGRFTISRDNAKNTVYLPLNSLKPEDTAVYYCGARKLYGSPEHGYWGQGTQVTVSS” belongs “high polyreactivity”; to “QVQLVETGGGLVQAGGSLRLSCAPSGFIFYRNTMGWYRQAPGKERELDATISRRGGSTYYADSVKGRFTISRDNAKNTVYLQMNSLKPEDTAVYYCADGPRFSYYTHRYGYWGEGTQVTVSS”, “high polyreactivity”.
As for “QVQHVESGGGLVQAGGSLRISCAASGSTFPRYGKGRYRQAPGKERELVAAISSGGGRTYYADSVKGRFTISRDNAKNTVYVQMNSLKPEDTAVYYCNKRPSHWRHYIMDYWGQGTQVTVSS”, the “polyreactivity (PSR sort gate)” value was “high polyreactivity”.
The value for “QVQLVESGGGLVQAGGSLRLSCADSGYTFGRNAMGWYRQAPGKERELVATISQRGGSTYYADSVKGRFTISLDNAKNTVYLQLNSLKPEDTAVYYCAAGPIYRYRRYYYWGQGTQVTVSS” was “high polyreactivity”.
To “QVQLVESGGGLVQAGGSLRLSCAASGSIFYVYTMGWYRQAPGKERELVAAITVSGGRTYYADSVKGRFTISRDNAKNTVYLQLNSLKPEDTAVYYCAADTAWPYYIYWSYDYWGQGTQVTVSS” belongs “low polyreactivity”; to “QVQLVESGGGLVQAGGSLRLSCAASGYILYINTMGWYRQAPGKERELVAAITYSGASTYYADSVKGRFTISRDNAKNTVYLQMNSLKPEDNGVYYCAADGYYGGYNYWGQGTQVTVSS”, “low polyreactivity”.
To “QVQLLESGGGLVQAGGSLRLSCAASGYIILRNAMGWYRQAPGKERELVAAIRRTGGSTYYADSLKGRFTISRDNAKNTVYLLLNSLKPEDTAVYSCAKRSYTGFEYWGQGTQVTVSS” belongs “low polyreactivity”; to “QVQLVESGGGLVQAGGSLRLSCAASGRTAMGWYRHAPGKEREVVAAITGSGVSTYADSVKGRFTISRDNAKNTVYLQMNSLKPEDTAVYYCAADLPFVGGDYWGQGTQVYVSS”, “low polyreactivity”; to “QVQLVESGGGLVQAGGSLRLSCAASGSIFEGYVMGWYRQAPGKERELVATISFSGGSTYYADSVKGRFTISRDNAKNTVYLQMNSLKPEDTAVYYSAAAGVYYGVRGTTYAYDYWGQGTQVTVSS”, “low polyreactivity”.
With “QVQLVESGGGLVQAGGSLRLSCAASGSIFYVYAMGWYRQAPGKERELVASIRWIGDRTYYADSVKGRFTISRDNAKNTVYLQMNSLKPEDTAVYYCAADPRYYGYYYLTPRYYYWGQGTQVTVSS”, the “polyreactivity (PSR sort gate)” value is reported as “high polyreactivity”.
In the case of “QVQLVESGGGLVQAGGSLRLSCAASGSTFGPYAMGWYRQAPGKERELVAAITLSGGSTYYADSVKGRFTISRDYAKNTVYLQLNRLKPEYTAVYYCAAEYDRVDEDDYWGQGTQVTVSS”, the “polyreactivity (PSR sort gate)” value is recorded as “high polyreactivity”.
To “QVQLVESGGGIVQAGGSLRLSCAASGYTFPRYAMGWYRQAPGKERELVAAITSRGGSTYYADSVKGRFTISRDNAKNTVYLQMNSLKPEDTAVYYCAVLGFGALDFDSWGQGTQVTVSS” belongs “high polyreactivity”; to “QDQLVESGGGLVQAGGSLRLSCAASGRIFPLYVMGWYRQAPGKERELVAAISRSGSRTYYADSVKGRFTISRDNAKNTVYLQMNSLKPEDTAVYYCAAVTDGTTRYDGDYWGQGTQVTVSS”, “high polyreactivity”; to “QVQLVESSGGLVQAGGSLRLSCAASGRTFTSNAMGWYRQAPGKERELVAAISNGGSTYYADSVKGRFTISRDNAKNTVYLQMNSLKPEDTAVYYCAAQYRVLWYSYYYWGQGTQVTVSS”, “high polyreactivity”.
“QVQLVESGGGLVQAGGSLRLSCAASGIIISLYAMGWYSQAPGKERELVATISTGGGTYYADSVKGRFTISRDNAKNTVYLQINSLKPEDTAVYYCAARRSYYGRSYYYWGQGTQVTVSS”: the “polyreactivity (PSR sort gate)” value was “high polyreactivity”.
As to “QVQLVESGGGLVQAGGSLRLSCAASGSTFIKNAMGWYRQAPGKERELVAAINNSGSRTYYADSVKGRFTISRDNAKNTVYLQMNSLKPEDTAVYYCAAGRTYGMGYWGQGTQVTVSS”, the “polyreactivity (PSR sort gate)” value is given as “high polyreactivity”.
The value for “QVQLVESGGGLVQAGGSLRLSCAASGSTFGVYAMGWYRQAPGKERELVARITSGGSTYYADSVKGRFTITRDNAKKTVYLQRNSLKPEDTAVYYCAAVYRRTRSWKFDYWGQGTQVTVAS” was “high polyreactivity”.
With “QVQLVESGGGLVQAGGSLRLSCAASGSTFNFYAMGWYRQAPGKDREFVAAITSSGDSTYYADSVKGRFTISRDNAKNTAYLQMNSLKPEDTAVYYCAARLRWRYSYDYWGQGTQVTVSS”, the “polyreactivity (PSR sort gate)” value is listed as “high polyreactivity”.
